From the supplement of paper PMC7125110 come the findings set out here.

B1: glmS ribozyme (parent)
chain: AUAAAAGCGCCAGAACUACAGAAAUGUAGUUGACGAGGAGGAGGUUUAUCGAAUUUUCGGCGGAUGCCUCCAAA

± gives the standard error. For part of these data: This sample holds only a part of the variants without activity.

Holding throughout (conditions): with glucosamine-6-phosphate
In data set [1] the parent is B1. The data set is described as follows: kcat; higher = faster cleavage; RNA array. Summed up: (§1)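 kobs was derived by fitting per-tile medians to one- or two-exponential decays after normalising signals to baseline and to non-cleaving reference variants. Those signals came from barcoded ribozyme variants transcribed in situ by E. coli RNA polymerase on sequenced MiSeq chips, followed through a hybridised Cy3 probe at 37 °C and imaged over ~14 h. Glucosamine-6-phosphate (40 μM to 10 mM) in HEPES/KCl/Mg(OAc)2 buffer was flowed in. Weighted Michaelis–Menten fits across concentrations then gave kcat and KM.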

Variants of B1 are the subject of data set [2]. In words: KM; higher = weaker cofactor use; RNA array. An outline of the steps:
as §1

The variants in data set [3] derive from B1. The data set is described as follows: self-cleavage kobs at 640 uM GlcN6P; higher = faster cleavage; RNA array. An outline of the steps: as §1
Data set [4] covers variants of B1. In words: self-cleavage kobs at 2500 uM GlcN6P; higher = faster cleavage; RNA array. An outline of the steps:
as §1

The variants in data set [5] derive from B1. The data set is described as follows: self-cleavage kobs at 10000 uM GlcN6P; higher = faster cleavage; RNA array. Summed up:
as §1

Data set [6] covers variants of B1. The data set is described as follows: self-cleavage kobs at 40 uM GlcN6P; higher = faster cleavage; RNA array. Summed up:
as §1

Variants of B1 are the subject of data set [7]. In words: self-cleavage kobs at 160 uM GlcN6P; higher = faster cleavage; RNA array. An outline of the steps:
as §1

Turning to G26U A48C, the catalytic constant (kcat) with glucosamine-6-phosphate [1] was 0.000587 ± 6e-05 s⁻¹. In addition, the KM with glucosamine-6-phosphate [2] was determined as 4480 ± 710 µM. In addition, in the data set with glucosamine-6-phosphate [3], the “self-cleavage kobs at 640 uM GlcN6P” value worked out at 7.06e-05 ± 1.4e-05 s⁻¹. Moreover, in the data set with glucosamine-6-phosphate [4], the “self-cleavage kobs at 2500 uM GlcN6P” value was found to be 0.000222 ± 3.5e-05 s⁻¹. In addition, the “self-cleavage kobs at 10000 uM GlcN6P” value with glucosamine-6-phosphate [5] is 0.000394 ± 7.4e-05 s⁻¹.
Consider U65A G66A, for which the turnover number (kcat) with glucosamine-6-phosphate [1] was found to be 0.00068 ± 8.6e-05 s⁻¹. Further, the Michaelis-Menten constant (KM) in the data set with glucosamine-6-phosphate [2] worked out at 1640 ± 390 µM. Also, the “self-cleavage kobs at 40 uM GlcN6P” value with glucosamine-6-phosphate [6] was 3.95e-05 ± 1.7e-05 s⁻¹. For the same variant, the “self-cleavage kobs at 160 uM GlcN6P” value in the data set with glucosamine-6-phosphate [7] came to 6.05e-05 ± 1.3e-05 s⁻¹. Further, the “self-cleavage kobs at 640 uM GlcN6P” value in the data set with glucosamine-6-phosphate [3] is 0.000177 ± 2.8e-05 s⁻¹. Also, in the data set with glucosamine-6-phosphate [4], the “self-cleavage kobs at 2500 uM GlcN6P” value was 0.000442 ± 6.9e-05 s⁻¹. Also, the “self-cleavage kobs at 10000 uM GlcN6P” value with glucosamine-6-phosphate [5] is 0.000577 ± 7.2e-05 s⁻¹.
On to U46C C67G, for which the turnover number (kcat) with glucosamine-6-phosphate [1] was 0.000658 ± 5.5e-05 s⁻¹. For the same variant, in the data set with glucosamine-6-phosphate [2], the KM was 1560 ± 320 µM. The “self-cleavage kobs at 160 uM GlcN6P” value with glucosamine-6-phosphate [7] worked out at 6.94e-05 ± 1.9e-05 s⁻¹. Also, in the data set with glucosamine-6-phosphate [3], the “self-cleavage kobs at 640 uM GlcN6P” value worked out at 0.000154 ± 5.6e-05 s⁻¹. Moreover, in the data set with glucosamine-6-phosphate [4], the “self-cleavage kobs at 2500 uM GlcN6P” value worked out at 0.000431 ± 6.7e-05 s⁻¹. Also, the “self-cleavage kobs at 10000 uM GlcN6P” value in the data set with glucosamine-6-phosphate [5] came out at 0.000561 ± 6.7e-05 s⁻¹.
As for C10G C67A, in the data set with glucosamine-6-phosphate [1], the kcat is 2.45e-05 ± 7.2e-06 s⁻¹.
With A12U G44A, the kcat with glucosamine-6-phosphate [1] stood at 0.00153 ± 0.00047 s⁻¹. In addition, in the data set with glucosamine-6-phosphate [2], the Michaelis constant (KM) came out at 2200 ± 960 µM. Besides, in the data set with glucosamine-6-phosphate [7], the “self-cleavage kobs at 160 uM GlcN6P” value is 8.78e-05 ± 1.3e-05 s⁻¹. For the same variant, the “self-cleavage kobs at 640 uM GlcN6P” value in the data set with glucosamine-6-phosphate [3] was 0.000437 ± 5.9e-05 s⁻¹. Also, in the data set with glucosamine-6-phosphate [4], the “self-cleavage kobs at 2500 uM GlcN6P” value was 0.00103 ± 0.00013 s⁻¹. Moreover, the “self-cleavage kobs at 10000 uM GlcN6P” value with glucosamine-6-phosphate [5] worked out at 0.000973 ± 0.0002 s⁻¹.
A15C C68A: the catalytic constant (kcat) with glucosamine-6-phosphate [1] came to 2.89e-05 ± 1.1e-05 s⁻¹.
For A48C U56C, the kcat in the data set with glucosamine-6-phosphate [1] was determined as 5.47e-05 ± 1.8e-06 s⁻¹. In addition, the KM with glucosamine-6-phosphate [2] was determined as 357 ± 160 µM. In the data set with glucosamine-6-phosphate [3], the “self-cleavage kobs at 640 uM GlcN6P” value is < 1e-05 s⁻¹. The “self-cleavage kobs at 2500 uM GlcN6P” value in the data set with glucosamine-6-phosphate [4] is 4.83e-05 ± 1.6e-05 s⁻¹. In addition, the “self-cleavage kobs at 10000 uM GlcN6P” value with glucosamine-6-phosphate [5] was found to be 5.27e-05 ± 1.2e-05 s⁻¹.
A48U U65G: in the data set with glucosamine-6-phosphate [1], the turnover number (kcat) was 0.000116 ± 1e-05 s⁻¹. Moreover, in the data set with glucosamine-6-phosphate [2], the Michaelis-Menten constant (KM) was 1390 ± 430 µM. For the same variant, the “self-cleavage kobs at 40 uM GlcN6P” value with glucosamine-6-phosphate [6] is < 1e-05 s⁻¹. In addition, the “self-cleavage kobs at 640 uM GlcN6P” value in the data set with glucosamine-6-phosphate [3] is 3.11e-05 ± 9.7e-06 s⁻¹. In addition, the “self-cleavage kobs at 2500 uM GlcN6P” value with glucosamine-6-phosphate [4] amounted to 8.19e-05 ± 1e-05 s⁻¹. For the same variant, in the data set with glucosamine-6-phosphate [5], the “self-cleavage kobs at 10000 uM GlcN6P” value stood at 9.9e-05 ± 9.7e-06 s⁻¹.
A6U C67A: in the data set with glucosamine-6-phosphate [1], the turnover number (kcat) came out at 7.39e-05 ± 6.8e-06 s⁻¹. In the data set with glucosamine-6-phosphate [3], the “self-cleavage kobs at 640 uM GlcN6P” value was 6.68e-05 ± 1.7e-05 s⁻¹. For the same variant, the “self-cleavage kobs at 2500 uM GlcN6P” value in the data set with glucosamine-6-phosphate [4] turned out to be 5.62e-05 ± 1.1e-05 s⁻¹. Further, the “self-cleavage kobs at 10000 uM GlcN6P” value with glucosamine-6-phosphate [5] came to 7.43e-05 ± 7.2e-06 s⁻¹.
In the case of C68U U69G C70U, the kcat with glucosamine-6-phosphate [1] is 1.34e-05 ± 6e-06 s⁻¹.
G13C U47A G59U C67G: the kcat with glucosamine-6-phosphate [1] stood at 1.81e-05 ± 2.9e-06 s⁻¹. Moreover, the “self-cleavage kobs at 640 uM GlcN6P” value with glucosamine-6-phosphate [3] was < 1e-05 s⁻¹.
For A6G U31C, the turnover number (kcat) with glucosamine-6-phosphate [1] stood at 6.74e-05 ± 1.3e-05 s⁻¹. In addition, the “self-cleavage kobs at 2500 uM GlcN6P” value in the data set with glucosamine-6-phosphate [4] came out at 5.13e-05 ± 7.6e-06 s⁻¹. Moreover, the “self-cleavage kobs at 10000 uM GlcN6P” value in the data set with glucosamine-6-phosphate [5] was found to be 5.58e-05 ± 7.5e-06 s⁻¹.
The corresponding values for A15U A33U are 5.77e-05 ± 6.8e-06 s⁻¹, 5.26e-05 ± 1e-05 s⁻¹ and 5.13e-05 ± 7.3e-06 s⁻¹.
Turning to A53U C58U, the kcat with glucosamine-6-phosphate [1] was determined as 6.85e-05 ± 2.7e-06 s⁻¹. In the data set with glucosamine-6-phosphate [2], the Michaelis constant (KM) turned out to be 2650 ± 390 µM. Moreover, the “self-cleavage kobs at 2500 uM GlcN6P” value in the data set with glucosamine-6-phosphate [4] is 3.23e-05 ± 1.2e-05 s⁻¹. The “self-cleavage kobs at 10000 uM GlcN6P” value with glucosamine-6-phosphate [5] is 5.43e-05 ± 6.6e-06 s⁻¹.
C16A A48U: in the data set with glucosamine-6-phosphate [1], the turnover number (kcat) is < 1e-05 s⁻¹. The KM in the data set with glucosamine-6-phosphate [2] is 163 ± 44 µM. In addition, the “self-cleavage kobs at 40 uM GlcN6P” value with glucosamine-6-phosphate [6] is < 1e-05 s⁻¹. Moreover, in the data set with glucosamine-6-phosphate [7], the “self-cleavage kobs at 160 uM GlcN6P” value was < 1e-05 s⁻¹.
Take G29U A42G: the kcat with glucosamine-6-phosphate [1] stood at 0.00693 ± 0.0016 s⁻¹. Besides, the KM with glucosamine-6-phosphate [2] worked out at 1770 ± 660 µM. Further, the “self-cleavage kobs at 40 uM GlcN6P” value with glucosamine-6-phosphate [6] amounted to 0.000272 ± 0.00011 s⁻¹. Besides, the “self-cleavage kobs at 160 uM GlcN6P” value in the data set with glucosamine-6-phosphate [7] stood at 0.000486 ± 0.00015 s⁻¹. In addition, the “self-cleavage kobs at 640 uM GlcN6P” value with glucosamine-6-phosphate [3] was 0.00202 ± 0.00037 s⁻¹. The “self-cleavage kobs at 10000 uM GlcN6P” value with glucosamine-6-phosphate [5] is 0.00626 ± 0.0011 s⁻¹.
For the variant A12C G29A, the turnover number (kcat) in the data set with glucosamine-6-phosphate [1] stood at 0.00648 ± 0.0024 s⁻¹. Also, in the data set with glucosamine-6-phosphate [6], the “self-cleavage kobs at 40 uM GlcN6P” value turned out to be 0.000188 ± 3.3e-05 s⁻¹. In the data set with glucosamine-6-phosphate [7], the “self-cleavage kobs at 160 uM GlcN6P” value is 0.000322 ± 0.00011 s⁻¹. In addition, the “self-cleavage kobs at 640 uM GlcN6P” value in the data set with glucosamine-6-phosphate [3] was 0.00107 ± 0.00022 s⁻¹. The “self-cleavage kobs at 2500 uM GlcN6P” value with glucosamine-6-phosphate [4] is 0.00331 ± 0.00067 s⁻¹. In the data set with glucosamine-6-phosphate [5], the “self-cleavage kobs at 10000 uM GlcN6P” value is 0.00557 ± 0.00097 s⁻¹.
Consider A39U G44C, for which the catalytic constant (kcat) with glucosamine-6-phosphate [1] came out at 0.000268 ± 4.5e-05 s⁻¹. The Michaelis constant (KM) with glucosamine-6-phosphate [2] was 1920 ± 770 µM. The “self-cleavage kobs at 640 uM GlcN6P” value with glucosamine-6-phosphate [3] was determined as 6.01e-05 ± 1.7e-05 s⁻¹. For the same variant, in the data set with glucosamine-6-phosphate [4], the “self-cleavage kobs at 2500 uM GlcN6P” value worked out at 0.0002 ± 3.9e-05 s⁻¹. For the same variant, the “self-cleavage kobs at 10000 uM GlcN6P” value with glucosamine-6-phosphate [5] stood at 0.000212 ± 3.2e-05 s⁻¹.

For orientation: kcat means the maximal rate divided by the concentration of active sites. As a reminder, the KM is the substrate concentration at which the rate is half of its maximum.
